Assay results reported in paper PMC8322834 (Biochemistry, 2020).
No end group written: not given here. AlexaFluor 488 = AlexaFluor 488 dye

Molecular target: DnaK (E. coli Hsp70 chaperone), ADP-state (E. coli, UniProt P0A6Y8 1-638)
Test: fluorescence polarisation

DnaK (E. coli Hsp70 chaperone), ADP-state, sequence (P0A6Y8 whole entry): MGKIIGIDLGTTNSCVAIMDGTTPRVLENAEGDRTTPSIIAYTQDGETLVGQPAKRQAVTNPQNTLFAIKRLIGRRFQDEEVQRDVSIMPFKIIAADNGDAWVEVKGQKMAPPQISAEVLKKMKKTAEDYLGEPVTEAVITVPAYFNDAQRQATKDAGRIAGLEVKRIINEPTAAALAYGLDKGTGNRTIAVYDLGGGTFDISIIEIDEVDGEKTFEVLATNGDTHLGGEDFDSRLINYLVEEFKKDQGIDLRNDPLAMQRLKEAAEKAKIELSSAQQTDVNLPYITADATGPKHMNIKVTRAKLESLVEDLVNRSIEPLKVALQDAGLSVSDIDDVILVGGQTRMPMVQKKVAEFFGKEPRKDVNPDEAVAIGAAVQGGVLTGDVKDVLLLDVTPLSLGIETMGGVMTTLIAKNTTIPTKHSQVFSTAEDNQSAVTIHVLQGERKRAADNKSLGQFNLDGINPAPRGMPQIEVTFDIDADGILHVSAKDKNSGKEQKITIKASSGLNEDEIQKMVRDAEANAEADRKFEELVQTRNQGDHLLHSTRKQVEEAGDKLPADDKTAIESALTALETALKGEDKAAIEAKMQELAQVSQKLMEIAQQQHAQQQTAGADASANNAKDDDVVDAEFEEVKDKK

## RRGKKLLLLLKKKGC(AlexaFluor 488) [KLR-70-C-AF488, AlexaFluor 488-conjugated KLR-70 peptide]
  Kd: 1730 nM
